Test results: publication PMC11194070, “Despite the odds: formation of the SARS-CoV-2 methylation complex” (Nucleic Acids Research, 2024)

Target: T1, SARS-CoV-2 nonstructural protein 10 (nsp10) (SARS-CoV-2, UniProt P0DTD1 4254-4392)
T1 construct: also called 2H15N-nsp10; apo-nsp10
Test: MST
Conditions: both partners purified

B1: nsp14ExoN, nsp14 without the methyltransferase domain but retaining the exonuclease activity (domain or fragment)
chain: AENVTGLFKDCSKVITGLHPTQAPTHLSVDTKFKTEGLCVDIPGIPKDMTYRRLISMMGFKMNYQVNGYPNMFITREEAIRHVRAWIGFDVEGCHATREAVGTNLPLQLGFSTGVNLVAVPTGYVDTPNNTDFSRVSAKPPPGDQFKHLIPLMYKGLPWNVVRIKIVQMLSDTLKNLSDRVVFVLWAHGFELTSMKYFVKIGPERTCCLCDRRATCFSTASDTYACWHHSIGFDYVYNPFMIDVQQWGFTGNLQSNHDLYCQVHGNAHVASCDAIMTRCLAVHECFVKRVDWTIE
- Kd: 4.55 ± 2.68 µM
